From patent US20200181261A1 (Bayer, published 2020) come the findings set out here.

Numbering of substitutions follows the chain as printed.

One may read the Kd as a measure of binding affinity in units of concentration. Higher therefore signals weaker binding.

What all share (experiment): SPR, antibody captured, antigen as analyte
(Surface plasmon resonance follows binding to a sensor surface in real time, without labels.)

For test [1], the target named is T1, human CEACAM6, extracellular (mature form), R&D Systems 3934-CM (human, UniProt P40199 35-320).
T1 construct: used biotinylated in some assays; also called TPP-1436; Recombinant human CEACAM6
T1 sequence: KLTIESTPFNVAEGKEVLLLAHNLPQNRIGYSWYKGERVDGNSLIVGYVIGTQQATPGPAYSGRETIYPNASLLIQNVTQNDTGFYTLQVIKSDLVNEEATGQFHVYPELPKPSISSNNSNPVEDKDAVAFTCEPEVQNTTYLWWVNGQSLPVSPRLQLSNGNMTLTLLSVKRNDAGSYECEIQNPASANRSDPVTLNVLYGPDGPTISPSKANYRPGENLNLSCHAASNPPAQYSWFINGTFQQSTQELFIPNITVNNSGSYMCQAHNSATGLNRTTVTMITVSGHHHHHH
On the procedure:
(§1) Surface plasmon resonance (SPR) experiments for quantitative binding analyses were performed either using a Biacore T100, Biacore T200 or a Biacore 4000 instrument (GE Healthcare Biacore, Inc.) equipped with Series S Sensor Chips CM5 (GE Healthcare Biacore, Inc.). Binding assays were carried out at 25° C. with assay buffer HBS-EP+(10 mM HEPES pH 7.4, 150 mM NaCl, 3 mM EDTA, 0.05% Surfactant P20). Antibodies were captured with an anti-hIgG capture antibody covalently immobilized to the chip surface via amine coupling chemistry. Reagents for amine coupling (1-ethyl-3-(3-dimethylaminopropyl) carbodiimide hydrochloride (EDC), N-hydroxysuccinimide (NHS), ethanolamine-HCl pH 8.5) were used from the Amine Coupling Kit (GE Healthcare, product code BR-1000-50). Anti-hIgG, anti-mIgG capture antibodies and immobilization buffer (10 mM sodium acetate pH 5.0) were used from the Human Antibody Capture Kit (GE Healthcare, BR-1008-39) and the Mouse Antibody Capture Kit (GE Healthcare, BR-1008-38), respectively. The sensor chip surface was activated with a freshly prepared solution of 0.2 M EDC and 0.05 M NHS passed over the chip surface for 420 s at a flow rate of 10 μl/min, followed by an injection of anti-hIgG or anti-mIgG capture antibody (dissolved to 25 μg/ml in immobilization buffer) for 180 s at a flow rate of […]. Excess of activated groups were blocked with a 1 molar solution of ethanolamine injected at a flow rate of 10 μl/min for 420 s.
(§2) CEACAM antigens were used as analyte to determine KD values. Antibodies were captured for 20 s at a flow rate of 10 μl/min prior to each analyte injection.
(§3) Obtained sensorgrams were double-referenced, i.e. in-line reference cell correction followed by buffer sample subtraction.

The target of test [2] is T2, Macaca fascicularis CEACAM6, extracellular (mature form), obtained by Factor Xa cleavage of TPP-2443 (Macaca fascicularis).
T2 construct: used biotinylated in some assays; also called APP-319; Cynomolgus CEACAM6
T2 chain: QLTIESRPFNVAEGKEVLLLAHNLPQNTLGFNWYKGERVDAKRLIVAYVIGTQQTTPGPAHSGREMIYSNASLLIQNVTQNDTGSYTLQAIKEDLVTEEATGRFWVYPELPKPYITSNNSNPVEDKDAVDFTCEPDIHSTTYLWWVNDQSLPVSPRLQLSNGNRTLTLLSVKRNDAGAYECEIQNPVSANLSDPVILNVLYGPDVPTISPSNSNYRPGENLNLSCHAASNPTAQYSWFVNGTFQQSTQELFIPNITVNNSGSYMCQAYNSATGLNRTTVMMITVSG
The protocol:
as §1, §2, §3

In test [3] the target is T3, human CEACAM3, extracellular (mature form), Sino Biological Inc. 11933-H08H (human, UniProt P40198 35-155).
T3 construct: used biotinylated in some assays; also called TPP-2755
T3 sequence: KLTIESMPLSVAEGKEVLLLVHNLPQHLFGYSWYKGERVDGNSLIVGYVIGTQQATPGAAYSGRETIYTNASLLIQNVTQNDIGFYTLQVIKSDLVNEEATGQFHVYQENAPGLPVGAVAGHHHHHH
The protocol:
as §1, §2, §3

The target in test [4] is T4, human CEACAM5, extracellular (mature form), R&D Systems 4128-CM (human, UniProt P06731 35-685).
T4 construct: used biotinylated in some assays; also called TPP-1438; hC5
T4 sequence: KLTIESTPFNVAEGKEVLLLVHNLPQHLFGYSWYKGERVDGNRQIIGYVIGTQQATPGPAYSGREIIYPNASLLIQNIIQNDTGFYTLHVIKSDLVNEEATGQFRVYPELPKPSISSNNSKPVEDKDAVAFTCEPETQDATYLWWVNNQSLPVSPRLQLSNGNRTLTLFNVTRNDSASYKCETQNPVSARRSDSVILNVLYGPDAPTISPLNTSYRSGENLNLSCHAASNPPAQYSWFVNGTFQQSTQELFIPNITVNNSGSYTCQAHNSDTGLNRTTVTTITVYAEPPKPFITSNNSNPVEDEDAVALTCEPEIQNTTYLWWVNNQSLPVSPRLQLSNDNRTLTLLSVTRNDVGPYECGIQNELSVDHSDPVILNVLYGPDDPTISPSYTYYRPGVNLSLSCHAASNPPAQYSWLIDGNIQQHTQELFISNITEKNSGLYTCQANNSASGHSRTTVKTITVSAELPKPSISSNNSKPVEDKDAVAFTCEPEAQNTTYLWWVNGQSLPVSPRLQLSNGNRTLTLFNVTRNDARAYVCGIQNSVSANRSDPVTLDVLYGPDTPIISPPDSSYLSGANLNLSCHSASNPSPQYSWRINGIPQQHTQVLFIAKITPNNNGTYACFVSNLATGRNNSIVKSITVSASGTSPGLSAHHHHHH
On the procedure: as §1, §2, §3

B1: TPP-2971 (antibody, mouse IgG1, V domains shown)
VH: QVTLKESGPGILQPSQTLSLTCSFSGFSLSTYGIGVGWIRQPSGKDLEWLAHIWWNDNKYYNTALKSRLTISKDTSNNQVFLKIASVDTADTATYYCARISLPYFDYWGQGTTLTVSS
VL: DIVMTQSQKFMSTSVGDRVSITCKASQNVGTAVAWYQQKPGQSPKLLIYSASNRYTGVPDRFTGSGSGTDFTLTISNMQSEDLADYFCQQYSSYPLTFGAGTKLELK
notes: murine hybridoma antibody, mouse IgG1; also called 792.15H12C9
With B1, the Kd in test [1] was found to be 61 nM; in test [2], 25 nM. For the same molecule, the binding result in test [3] and in test [4] was “no binding (tested: 200 nM)” each time.

B2: TPP-3187 (antibody, mouse IgG1, V domains shown)
VH: B1 VH with S30T, D46G
VL: B1 VL with S92N, S93N
notes: murine hybridoma antibody, mouse IgG1; also called 792.15C4F4
With B2, binding in test [1] was put at a Kd of 68 nM. For the same molecule, the binding result in test [3] and in test [4] was “no binding (tested: 200 nM)” each time.

B3: TPP-3705 (antibody, human IgG2, kappa, V domains shown)
VH: EVQLVESGGGLVQPGGSLRLSCAASGFTFSLYQMHWVRQAPGKGLEWVSWISFSGGNTGYADSVKGRFTISRDNSKNTLYLQMNSLRAEDTAVYYCARATGYSSPWYLDPWGQGTLVTVSS
VL: DIQMTQSPSSLSASVGDRVTITCQASHEIDNYLNWYQQKPGKAPKLLIYDAYWLKTGVPSRFSGSGSGTDFTLTISSLQPEDIATYYCQGYDDLSVTFGGGTKVDIKR
notes: also called 090E-M007-A09-Mat1-hIgG2-hIgG2Kappa
Take B3: the Kd was found to be 28 nM in test [1] and 32 nM in test [2]. Moreover, the binding result in test [4] is on record as “no binding (tested: 200 nM)”.

B4: TPP-3707 (antibody, human IgG2, kappa, V domains shown)
VH: B3 VH
VL: B3 VL with L54S
notes: also called 090E-M007-A09-Mat2-hIgG2-hIgG2Kappa
On to B4, for which the Kd in test [1] turned out to be 28 nM; in test [2], 32 nM. Besides, in test [4], the binding result is “no binding (tested: 200 nM)”.

B5: TPP-3821 (antibody, human IgG2, kappa, V domains shown)
VH: QVTLRESGPALVKPTQTLTLTCTFSGFSLSTYGIGVGWIRQPPGKALEWLAHIWWNDNKYYSTSLKTRLTISKDTSKNQVVLTMTNMDPVDTATYYCARISLPYFDYWGQGTLVTVSS
VL: DIQLTQSPSFLSASVGDRVTITCKASQNVGTAVAWYQQKPGKAPKLLIYSASNRYTGVPSRFSGSGSGTEFTLTISSLQPEDFATYYCQQYNNYPLTFGGGTKVEIKR
notes: humanized from TPP-3187, human IgG2; also called 3187HU2-hIgG2Kappa
For the molecule B5, the Kd in test [1] was determined as 24 nM; in test [2] it was 49 nM. Moreover, the binding result in test [3] and in test [4] was “no binding (tested: 200 nM)” in each case.

B6: TPP-3310 (antibody, human IgG2, kappa)
heavy: QVTLRESGPALVKPTQTLTLTCTFSGFSLSTYGIGVGWIRQPPGKALEWLAHIWWNDNKYYSTSLKTRLTISKDTSKNQVVLTMTNMDPVDTATYYCARISLPYFDYWGQGTTLTVSSASTKGPSVFPLAPCSRSTSESTAALGCLVKDYFPEPVTVSWNSGALTSGVHTFPAVLQSSGLYSLSSVVTVPSSNFGTQTYTCNVDHKPSNTKVDKTVERKCCVECPPCPAPPVAGPSVFLFPPKPKDTLMISRTPEVTCVVVDVSHEDPEVQFNWYVDGVEVHNAKTKPREEQFNSTFRVVSVLTVVHQDWLNGKEYKCKVSNKGLPAPIEKTISKTKGQPREPQVYTLPPSREEMTKNQVSLTCLVKGFYPSDIAVEWESNGQPENNYKTTPPMLDSDGSFFLYSKLTVDKSRWQQGNVFSCSVMHEALHNHYTQKSLSLSPG
light: DIQLTQSPSFLSASVGDRVTITCKASQNVGTAVAWYQQKPGKAPKLLIYSASNRYTGVPSRFSGSGSGTEFTLTISSLQPEDFATYYCQQYSSYPLTFGGGTKVEIKRTVAAPSVFIFPPSDEQLKSGTASVVCLLNNFYPREAKVQWKVDNALQSGNSQESVTEQDSKDSTYSLSSTLTLSKADYEKHKVYACEVTHQGLSSPVTKSFNRGEC
notes: humanized from TPP-2971, human IgG2; also called TPP-2971HU1-hIgG2Kappa
As to B6, the Kd in test [1] came out at 13 nM; in test [2] it was 31 nM. Moreover, the binding result in test [3] and in test [4] was “no binding (tested: 200 nM)” throughout.

B7: TPP-3820 (antibody, human IgG2, kappa, V domains shown)
VH: B5 VH with S30T, A46G
VL: B5 VL
notes: humanized from TPP-3187, human IgG2; also called 3187HU1-hIgG2Kappa
As for B7, the Kd in test [1] stood at 27 nM; in test [2] it was 54 nM. In addition, the binding result in test [3] and in test [4] was “no binding (tested: 200 nM)” each time.

B8: TPP-3714 (antibody, human IgG2, kappa)
heavy: B6 heavy with T113L, L114V
light: B6 light
notes: humanized from TPP-2971, human IgG2; also called TPP-2971HU2-hIgG2Kappa
Take B8: the Kd stood at 13 nM in test [1] and 27 nM in test [2]. Further, the binding result in test [3] and in test [4] was “no binding (tested: 200 nM)” throughout.
